How the values were obtained:
[1] = molecular target: T1, Recombinant human ectodomain αIIbβ3, activated (high-affinity ligand binding conformation) (human, UniProt P08514 32-993; P05106 27-718, carboxyl groups coupled to the DETA silane layer by EDC/sulfo-NHS); assay: sandwich ELISA, αIIbβ3 coated on a 96-well plate in a buffer with Mg2+, Mn2+ and Ca2+ (anti-fibrinogen mouse IgG, anti-mouse IgG-HRP)
T1 construct: Also used here for the ELISA plate coated in a buffer with the same cations
Procedure: Fibrinogen ELISA Assay. To ensure similar immobilization levels of recombinant human ectodomain aIIbβ3 between the ELISA plate and integrin coupled magnetic beads, the wells of a 96-well micro plate (Nunc MaxiSorp) were incubated with the same aIIbβ3 concentration per surface area as during the preparation of the magnetic beads, 6.6×10⁴ μg·mL⁻¹·c⁻². Each well was coated with aIIbβ3 or control proteins (BSA and β3−/− platelet lysate) by incubation of 6 μg/μL protein in binding buffer (TRIS buffered saline with 0.05% TWEEN-20 and 1 mM each of MgCl₂, MnCl₂ and CaCl₂)) at 4° C. overnight. Incubation of 3% skim milk (ED Millipore) and 2% TWEEN-20 for 1 hour at 37° C. was used for blocking. The concentration of aIIbβ3 per surface area of bead used when coating SAM coated beads is 6.6×10⁴ μg·mL⁻¹·cm⁻², therefore the wells of 96 well plates used were coated with the same density EDC/NHS quenching achieved by increase pH to 8.6. Bead concentration for synthesis: 6×10⁹ beads·mL⁻¹; Integrin-bead reaction concentration=250 μg·mL⁻¹; Integrin Used=6.6×10⁴ μg·mL⁻¹·cm⁻²; Well Surface Area (50 μL)=0.93 cm²; Concentration/wee for ELISA=6×10⁴ μg·mL⁻¹ (6 μL/well in 50 μL total volume); Stock [αIIbβ3]=5×10⁵ μg·mL⁻¹.
Fibrinogen binding. […] The OPD peroxidase reaction was stopped after 1 hour with 2 M H₂SO₄ and the absorbance was read at 492 nm. […]

[2] = molecular target: T1, Recombinant human ectodomain αIIbβ3, …; assay: flow cytometry dose-response of Alexa488-fibrinogen on activated αIIbβ3 beads, DETA signal subtracted, one site specific binding fit
Procedure: 3 μL of 1×10⁸ beads/mL were mixed with the desired concentration of fluorescently labelled antibody or ligand to a final volume of 100 μL in PBS and incubated for 1 h. Following incubation, the samples were diluted to a final volume of 1 mL and flow cytometrically analyzed. Samples that were compared with one another were run on the same instrument under the same instrumental conditions (signal gain, flow rate etc.). Any differences in absolute mean fluorescence intensity (MFI) value between different experiments was due to variance between the two.
αIIbβ3 Coupled Bead Flow Cytometry Analysis. […] Ferromagnetic silica particles at each stage of the coating fabrication process were analyzed with flow cytometry for binding to (FIGS. 2A and 2B) PSI E1, and (FIG. 2C to 2F) fibrinogen. […] After the activation step, the beads were analyzed with flow cytometry for binding of Alexa488™ labelled fibrinogen (native αIIbβ3 ligand) and PAC-1 (an antibody specific for the active upright conformation of αIIbβ3) (See Table 2, FIGS. 2G to 2I). […] All analyses conducted as n≥3, data presented as mean±SD, analyzed with a two-tailed t-test, ns=not significant *P<0.05, **P<0.01, ***P<0.001 and ****P<0.0001.

[3] = molecular target: T1, Recombinant human ectodomain αIIbβ3, …; assay: flow cytometry sandwich assay on αIIbβ3 coupled beads (anti-fibrinogen mouse IgG, FITC-labelled detection antibody), apparent Kd

T1 sequence (P08514 other isoform, or with tags, fused parts or gaps limits assumed, chain 1 of 2): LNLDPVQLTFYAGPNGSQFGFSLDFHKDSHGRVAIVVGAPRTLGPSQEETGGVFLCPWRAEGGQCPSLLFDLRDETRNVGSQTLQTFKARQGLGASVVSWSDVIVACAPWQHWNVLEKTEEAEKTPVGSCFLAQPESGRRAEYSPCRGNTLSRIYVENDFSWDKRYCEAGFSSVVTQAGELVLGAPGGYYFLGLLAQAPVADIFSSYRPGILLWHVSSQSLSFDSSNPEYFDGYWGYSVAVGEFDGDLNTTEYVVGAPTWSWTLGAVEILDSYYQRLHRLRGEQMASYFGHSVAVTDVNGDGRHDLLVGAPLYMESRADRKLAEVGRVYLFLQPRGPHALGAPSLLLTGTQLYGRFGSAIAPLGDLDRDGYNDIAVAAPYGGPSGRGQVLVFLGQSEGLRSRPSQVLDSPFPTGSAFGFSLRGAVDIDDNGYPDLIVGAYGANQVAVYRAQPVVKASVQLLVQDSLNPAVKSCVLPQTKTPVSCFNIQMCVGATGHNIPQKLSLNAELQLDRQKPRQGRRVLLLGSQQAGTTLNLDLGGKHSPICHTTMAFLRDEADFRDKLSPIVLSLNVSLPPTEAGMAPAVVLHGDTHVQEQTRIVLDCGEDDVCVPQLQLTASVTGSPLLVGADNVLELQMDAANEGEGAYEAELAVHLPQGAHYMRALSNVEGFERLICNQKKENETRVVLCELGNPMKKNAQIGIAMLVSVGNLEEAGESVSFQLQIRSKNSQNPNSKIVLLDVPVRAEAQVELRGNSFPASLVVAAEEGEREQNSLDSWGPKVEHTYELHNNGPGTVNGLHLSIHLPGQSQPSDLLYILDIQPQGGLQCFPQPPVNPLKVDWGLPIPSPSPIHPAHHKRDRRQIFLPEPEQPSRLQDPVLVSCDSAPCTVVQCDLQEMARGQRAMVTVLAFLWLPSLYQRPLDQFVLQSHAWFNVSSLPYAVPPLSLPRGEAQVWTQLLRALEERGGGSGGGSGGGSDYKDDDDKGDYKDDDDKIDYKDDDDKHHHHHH
T1 sequence (P05106 other isoform, or with tags, fused parts or gaps limits assumed, chain 2 of 2): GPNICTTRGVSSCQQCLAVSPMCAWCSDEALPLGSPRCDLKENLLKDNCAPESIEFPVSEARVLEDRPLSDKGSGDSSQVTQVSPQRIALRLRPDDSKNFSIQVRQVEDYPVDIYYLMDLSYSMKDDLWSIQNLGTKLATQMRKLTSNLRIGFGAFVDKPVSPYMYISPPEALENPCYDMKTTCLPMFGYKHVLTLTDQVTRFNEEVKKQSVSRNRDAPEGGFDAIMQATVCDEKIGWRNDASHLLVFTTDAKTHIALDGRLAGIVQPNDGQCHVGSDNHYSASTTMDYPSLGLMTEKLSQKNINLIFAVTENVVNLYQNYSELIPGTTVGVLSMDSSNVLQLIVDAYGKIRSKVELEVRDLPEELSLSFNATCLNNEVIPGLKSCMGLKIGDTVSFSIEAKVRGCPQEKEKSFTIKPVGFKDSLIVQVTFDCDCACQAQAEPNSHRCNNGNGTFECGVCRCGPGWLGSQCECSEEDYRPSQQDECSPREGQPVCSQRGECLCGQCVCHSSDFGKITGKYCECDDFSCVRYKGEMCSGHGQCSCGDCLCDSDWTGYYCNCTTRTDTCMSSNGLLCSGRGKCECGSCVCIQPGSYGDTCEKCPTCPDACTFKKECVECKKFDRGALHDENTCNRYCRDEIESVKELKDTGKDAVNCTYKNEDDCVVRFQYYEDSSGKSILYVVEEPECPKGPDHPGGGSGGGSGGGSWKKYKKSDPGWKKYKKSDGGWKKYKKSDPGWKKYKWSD

Kd [1]: 2200 nM
Kd [2]: 78 nM
Kd [3]: 210 nM
B1: Fibrinogen (ligand)
alpha: ADSGEGDFLAEGGGVRGPRVVERHQSACKDSDWPFCSDEDWNYKCPSGCRMKGLIDEVNQDFTNRINKLKNSLFEYQKNNKDSHSLTTNIMEILRGDFSSANNRDNTYNRVSEDLRSRIEVLKRKVIEKVQHIQLLQKNVRAQLVDMKRLEVDIDIKIRSCRGSCSRALAREVDLKDYEDQQKQLEQVIAKDLLPSRDRQHLPLIKMKPVPDLVPGNFKSQLQKVPPEWKALTDMPQMRMELERPGGNEITRGGSTSYGTGSETESPRNPSSAGSWNSGSSGPGSTGNRNPGSSGTGGTATWKPGSSGPGSTGSWNSGSSGTGSTGNQNPGSPRPGSTGTWNPGSSERGSAGHWTSESSVSGSTGQWHSESGSFRPDSPGSGNARPNNPDWGTFEEVSGNVSPGTRREYHTEKLVTSKGDKELRTGKEKVTSGSTTTTRRSCSKTVTKTVIGPDGHKEVTKEVVTSEDGSDCPEAMDLGTLSGIGTLDGFRHRHPDEAAFFDTASTGKTFPGFFSPMLGEFVSETESRGSESGIFTNTKESSSHHPGIAEFPSRGKSSSYSKQFTSSTSYNRGDSTFESKSYKMADEAGSEADHEGTHSTKRGHAKSRPVRGIHTSPLGKPSLSP
beta: QGVNDNEEGFFSARGHRPLDKKREEAPSLRPAPPPISGGGYRARPAKAAATQKKVERKAPDAGGCLHADPDLGVLCPTGCQLQEALLQQERPIRNSVDELNNNVEAVSQTSSSSFQYMYLLKDLWQKRQKQVKDNENVVNEYSSELEKHQLYIDETVNSNIPTNLRVLRSILENLRSKIQKLESDVSAQMEYCRTPCTVSCNIPVVSGKECEEIIRKGGETSEMYLIQPDSSVKPYRVYCDMNTENGGWTVIQNRQDGSVDFGRKWDPYKQGFGNVATNTDGKNYCGLPGEYWLGNDKISQLTRMGPTELLIEMEDWKGDKVKAHYGGFTVQNEANKYQISVNKYRGTAGNALMDGASQLMGENRTMTIHNGMFFSTYDRDNDGWLTSDPRKQCSKEDGGGWWYNRCHAANPNGRYYWGGQYTWDMAKHGTDDGVVWMNWKGSWYSMRKMSMKIRPFFPQQ
gamma: YVATRDNCCILDERFGSYCPTTCGIADFLSTYQTKVDKDLQSLEDILHQVENKTSEVKQLIKAIQLTYNPDESSKPNMIDAATLKSRKMLEEIMKYEASILTHDSSIRYLQEIYNSNNQKIVNLKEKVAQLEAQCQEPCKDTVQIHDITGKDCQDIANKGAKQSGLYFIKPLKANQQFLVYCEIDGSGNGWTVFQKRLDGSVDFKKNWIQYKEGFGHLSPTGTTEFWLGNEKIHLISTQSAIPYALRVELEDWNGRTSTADYAMFKVGPEADKYRLTYAYFAGGDAGDAFDGFDFGDDPSDKFFTSHNGMQFSTWDNDNDKFEGNCAEQDGSGWWMNKCHAGHLNGVYYQGGTYSKASTPNGYDNGIIWATWKTRWYSMKKTTMKIIPFNRLTIGEGQQHHLGGAKQAGDV
modifications: Alexa 488 dye on lysines (positions not stated) in the results at the 2nd table and paragraph 103; unlabelled in the sandwich assay of paragraph 112. The native protein is a disulfide-linked dimer of the three chains; each chain is given once.
notes: It calls the protein 'bivalent fibrinogen'; also called Fg; Alexa488 labelled fibrinogen
